The values that follow are results of earlier work, collected in article PMC3575173.

This data set deals with TAMRA-TRTK-12 (UniProt P52907).

For orientation: Kd means the constant that tells how readily two partners part at equilibrium. On to S100B (from UniProt P04271), for which the Kd was 1.19 µM.
